# Experiment: soluble on expression in E. coli; label from the status in PepcDB or PDB records
row,Sequence,soluble on expression in E. coli
1,MGSDKIHHHHHHMTTPRRALIVIDVQNEYVTGDLPIEYPDVQSSLANIARAMDAARAAGVPVVIVQNFAPAGSPLFARGSNGAELHPVVSERARDHYVEKSLPSAFTGTDLAGWLAARQIDTLTVTGYMTHNCDASTINHAVHSGLAVEFLHDATGSVPYENSAGFASAEEIHRVFSVVLQSRFAAVASTDEWIAAVQGGTPLARGNIYASNQKARARRATA,not soluble
2,MGSDKIHHHHHHMTTSIDTLSAFVYAADLGSFSAAARRLGKSQSTISEAIANLEIDLGSSLFDRGTRAPTLTPAGRLLLPQARQIMAASQDLRRQAAQLNAGVETRLTIVLSDTFQSRTLESVACRLEERYPLLELECLVGEQEDVLDLILSGRAQLGLVGAMDSYPPDVRHQRQREASELALYAAHRHPLAGMDRIDEQQLDQHRQLRLNTYSDKTPADSGQRQWYAPSYLMLLDMARLGVGWAELPCWLVHSFGGGELKQLDVAGWPKRMPVDLVWAANKPLGAAAGWLLQQLTDGAEQR,not soluble
3,MGSDKIHHHHHHMTTTNGIDGSYYYENRPKEQSNSGILGKDDFLRILIAQLQYQDPLNPMDDREFIAQMAQFSSLEQMTNMNSAIQQFVKQQTSQTLVQHSELIGKRVTWKRIIDIDEYRQKEELVENTVTSVRLETNGNVSIQLDSGRWISADQLVQVSGKTNHQEEAEGDVGDNAPDEQEG,not soluble
4,MGSDKIHHHHHHMTTWVLLRGLMRDQRHWNGFDQRLRQKGLRVLTPDLPGNGTLSTEASPLKIADYAHAVWLQLDEQVQEGETIYLLGLSMGGMLALEMARQRPWLIRHVFVLNSSAANLSAWYQRFNPLNALKAFFLRARGKALHPIESTIVRLTSFRHRLDCGLIAEWSEFRRQSSPTIRNAWRQLWAAFQYQCPLTVEVPISVLCGDRDALVSMASSKALALHFHTDLIVLAYCGHDAAIDAPAKLAHYLLAIVAPTKLQAEVQEDDEPAHAQYAHTQYSCNDLLEEEMAFNEAIFSVWDEKALSTLHSKSSAMNSAKTVNS,not soluble
5,MGSDKIHHHHHHMTVEYTASDLATYQNEVNEQIAKNKAHLESLTHPGSKVTFPIDQDISATPQNPNLKVFFFDIDNCLYKSSTRIHDLMQQSILRFFQTHLKLSPEDAHVLNNSYYKEYGLAIRGLVMFHKVNALEYNRLVDDSLPLQDILKPDIPLRNMLLRLRQSGKIDKLWLFTNAYKNHAIRCLRLLGIADLFDGLTYCDYSRTDTLVCKPHVKAFEKAMKESGLARYENAYFIDDSGKNIETGIKLGMKTCIHLVENEVNEILGQTPEGAIVISDILELPHVVSDLF,not soluble
6,MGSDKIHHHHHHMTVFILNGEEPNQEGVRYVAKLLKREKLVEDIHFSTIDEIPLDNSYVLGDHSGTYFILKKIKPNALISLDAHTDLMQDYFDHASWLAYALKDNIIKRASVIGAVLMIPTTSGTKLWKRGVKVFPALPRTKKIRGKWKAYTNLEQHGVERVLKETREFLGKEIYLSIDLDVLSPEYRIARFQHGELTLRELLDIIEAIKKNFKIIAFDVAEISFRVAKSKYGRRAIIEVFSSLKEVFE,not soluble
7,MGSDKIHHHHHHMVAMQSYPYVITVSSEKGGVGKTTLATNLAIYLKALDENLPVSIFSFDNHFTVDRMFEIRGQRTTGTVADLLLETPGRDLIHTGQYGVGYIPSSPNLSDLKGTVKTPMMLARLLALSRIPGVVVIDTRPDLDILTQNALFAADRAIIPVKDMPSLENCRNIFALFEQRGLDRKSLSLIPCLVDERIKFDGPFSDQKTLLKAYAINRGYRCFETYISKSPKVESLNTNPDGKIYPILTHAKWTEVHGQFAQLAQTIITEFRATAEPRAFLFHQWLQSEEVRKKEAFFARLSGIKSECLLCGRPVSGKDSDRVSFYFEVSDGSAAGFFEEECFFRLLMTNVYNLDINLADDDPTLQIMRDAARESAFVFRPVTNGSGTTVDFHRFGLDGVHLLKKAYPLREFEGGMLTREKSRLFSLLSETFGNRLDASPDSFLLVHPVHQEKPEAILQEECYRGFARLRQRIAQQVLPPN,not soluble
8,MGSDKIHHHHHHMVDEILKLKKEKGYIILAHNYQIPELQDIADFVGDSLQLARKAMELSEKKILFLGVDFMAELVKILNPDKKVIVPDRSATCPMANRLTPEIIREYREKFPDAPVVLYVNSTSECKTLADVICTSANAVEVVKKLDSSVVIFGPDRNLGEYVAEKTGKKVITIPENGHCPVHQFNAESIDAVRKKYPDAKVIVHPECPKPVRDKADYVGSTGQMEKIPEKDPSRIFVIGTEIGMIHKLKKKFPDREFVPLEMAVCVNMKKNTLENTLHALQTESFEVILPKEVIEKAKKPILRMFELMG,not soluble
9,MGSDKIHHHHHHMVDNPGNLNSFRALALQVTCHAVNQASDRQEAGLMMHNTINRLAQQIAASIAFIGFDCRLIVLPEYFLTGFPMGEPLQVWADKACLEINGAEYEALGMIAQKQQIFLAGNAYELDPNFPGLYFQTCFVIDPSGSVVLRYRRLNSLFAPTPHDVWDKYLDCYGLEGVFPVAKTAIGNLAALASEEILYPEVARCLAMRGAEIFLHSTSEVYSKNLTPKDAAKITRAVENMAYVVSANSAGLANSAIPIGSVDGGSKIIDHRGIILAETGPGESMAAFAEIDLAALRRDRTRPGLNNLLSRQRFEMYAQSYSQAKFYPANTMLNKEIERKHFIQTQQETIERLTRLGII,not soluble
10,MGSDKIHHHHHHMVEELLGKALARKRSLRKDETIDVFNRVTYFFPKDFVITNYPRNPVAVFNPGAVLVGKALHVFPRLIFDYYKYVSSIGHFIVNIDDLLNGEVKKPLEMEVVFWPRDIQEFLGCEDPRVFFRNSRFELLYTAKGYKDWSQEGKPHTDFLAYAVLDEDLNLIEKRYISIKSTLGEYVPVSMKDSSFVESKVILTRLTVGDAKVCWRGRLEGSYIDLYSLDPVFFPEEWETKVGWSTNTVEVKEGYLVGWHAVLKDLTYKNGLALVDGRGRLLGTTNYVLSPKGVIEEYGDRIRVIFGCGLVVYGGRVIWIGGVSDWAIGVFETSEREIMNLMKEAT,not soluble
11,MGSDKIHHHHHHMVELKAPLTTLWRGKDAFEEVKTLQGEVFRELETRRTLRFELDGKSYFLKWHKGTSLKEIVKNLISLRMPVLGADREWHAIHRLHELGVDTMHGVGFGEKGVNPLTRTSFIITEDLTPTISLEDYCADWAVNPPDAQVKWMIIKRVATMVRKMHAGGINHRDCYICHFLLHLPFTGREEDLKISVIDLHRAQIRQHVPLRWRDKDLIGLYFSSMNIGLTQRDIFRFMREYFSLPLREILQKESGLIHQADVKAARIKERTIRKNL,not soluble
12,MGSDKIHHHHHHMVELQRVTASSLQQSFAGDVYNTGVYLKRTFSDINTHLVTAIGQDSFSQAMLQRFEDEKINTDMVFQSTDKIAGLYAIQTDSKGERSFTYWRNDSAAKQIMQFIGDAAISKISQADMVFFSGISLAVINEEDRDAFWLLIKQCKQAGVSIVFDPNYRARMWHSPDQAKAQFDIAFSVADVVLPGVDDFNQLYGISSVEDIIAFCQPYDINELVIKNGENGINYVINGQQQHFSITPVTNVVDTTSAGDSFNGVYLGARLTGADISTAIKLASQAAGFVIQHKGAIAPKIEFHQFIERQKLIMQ,not soluble
13,MGSDKIHHHHHHMVERALALSELNQSEPVELVSNSKPSYPDLGEAVSVEVLVGWGKEAIAIIRDNYPDVLCNSDWECDVETTRLVNTQGLDCYYSDTTLSCYMSAEWVRGDDFLSVSDGQTQRDYLDPEKLAYQILQRLVWAKENVPPPNGRVPVLFTSKAADMLWGTAQAALNGKRVLEAASPWAERVGKQVIAPSLTLYQDPQAGPYSCPFDDEGTPTKSLVFIEKGILQNYYCDRTTGRQLGNSTTGNGFRPGLGSYPTPGLFNFLIKPGSKSLKDLIQNMDDGLIVDQMLGGSGGISGDFSINIELGYRVQKGQVIGRVKDTMVAGNVYTALKQVELGSDADWNGSCYTPSLIVEGLSTTGRNN,not soluble
14,MGSDKIHHHHHHMVGIILASHGEFAKGILQSGAMIFGDQENVQAVTLMPSEGPDDVKAKMKDAIASFDNQDEVLFLVDLWGGTPFNQANSLFEEHKDKWAIVAGMNLPMVIEAYGARLSMESAHEIAASIISTAKEGVKVKPEELEPEDAGKASQGSAKQSNTGAPGSFEYVLARIDSRLLHGQVATAWTKAMQPTRIIVVSDAVAKDELRKKLIQQAAPPGVKAHVVPINHMIKLAKDDQHFGGQRAMLLFENPEDVLRVVEGGVPLKTINVGSMAHSTGKVQPNKVLAFNQEDIDTFNKLKQSGLTFDVRKVPNDSKGNMDEIIKKAQDELNKQK,not soluble
15,MGSDKIHHHHHHMVGNYRGMGRFARQLVEPVGASVLGLAPSGVHADEWPCVSQGHGFFPWWEQVELPRLCREQRLDYLLCPYNTGPLRSTGNTRVVAVIHDLIYMEPWHVLPPARSVYQTVGRVYRRHVVPRLVRRADVVLTVSRFTQRELVKKFELREGDVRVVPCTISDDWFEPPVSRTARQPYLFTVAGEVPSKNVGRLLQAFAIARPALGDDARLRIAGIKAEHHAHFLGLADSLGLTNAVELLGYVSREELREQYRQARAFVFASLFEGFGIPLLEAMASGTPVACSNTTSMPEIAGNCALQFDPRSVEDMAEQIRAIWDDSARFEVALGDGVNRARTYSESAVRPSIEDFWAGLA,not soluble
16,MGSDKIHHHHHHMVKLKPKGPFTRIPRATTIFGAISNAIRLLYGRKEVEKFIAGFINDDAKITSAFPYDGETYFLPKPLSVDLVVKTLFETKKEDVKKVKKKDYIPLESFEKALRLEEFEVKELPYKVIELPKVSLDRVSNDSSLYFWDLVTFKENSGLYFLYDGSNKLFEKYIVPAMRLLEDQGIGGKGTWGYGLFEVEIEELEIEEPRENSYVTLSPFVPENETSLILWKIVKLGGWSQGKRRPKIPMVVEGSLSREDRGKMITLDLSLSYPVYVYARSFLVRASLPEEAVGHV,not soluble
17,MGSDKIHHHHHHMVKNYVLDTNVLIHDPDSIFSFEDNNVIIPLPVLEELDKLKREHGSVGKNAREVIRHLDELRKKGNLRKGIPLENGGILRVMVLEREVENVPRFLHERYVDNIILAYVIELMNREKIPTILVSKDINLRVKADSLGIPAQDYLTDRSELETMPKGYVEIDDEELKKQLKVKVTVEKKLDLLDNFYIDLGGVYGKYRKGKVLRVEPFETMGISPRNREQIFSMDALLDDEIPLVFLVGIAGTGKTLLALACGLYKVLVEKRYKKLIVTRPTVPMGRDIGYLPGELEKKMKPWLQPIMDNLELISSLSGLKIKELEKQEILEVEAISFIRGRSIPKQFIIIDEAQNLTPHEVKTILTRVGEDTKIVLVGDPYQIDTPYLDKDTNGLVYAALKLLESDLSAVIKLEKGERSRLATIAAELL,not soluble
18,MGSDKIHHHHHHMVLIRLRPCSAVEKDLIHACSPSASALVSKNEKAMKRFFLTTAILLSSVLASYADSLPSAVRDTVIRAGEKTIMIKDGEDDFEVIIQESMPSGDTIRNEKIFRGVYRNGRSIEQRFRNTLINRPNRDKEMPVWGTYGFGSFEWGELKVDDSHSDIGRSHSYRVSIQIFGDIYRLNKYLVLTYALGWDADIYRITDSKTLKNIDGVTTVVDVPGRAECTLTAAYLKAMPALAFNGVRSNLTVYIAPVLRAKVYSAATTDGPDGRLEKLRRVKLNTFSVEARAGINYRNAGIFFTYSLTPLFRSGKGPKLHPYTIGLSLSL,not soluble
19,MGSDKIHHHHHHMVMIQLCEWQQQGQFLSINDQQIFTRQAGDRKAPALLLIHGYPSASWDWEGMWHELTQHYFVVTLDMLGFGFSDKPKNVDYLISQQADIYEAVLQQFGVSHYHILAHDYGDTVAQELLARQLDGNSTLSINSVCFLNGGLFPETHKPLLIQTLLLSPLGPLVSKLINKQKFAVNLQRIFGPSTPPTPQVIDALWQLLNHNNGLAVMHKLINYITQRKQHRERWVGAIINSTIPIKLIAGVKDPISGQHMIDHYRKLIPHADVTELPTLGHYPQVEDANAIIAAYLQFRLNRT,not soluble
